Measured values: article PMC10989928, “Cell division factor ZapE regulates Pseudomonas aeruginosa biofilm formation by impacting the pqs quorum sensing system” (mLife, 2023)

Biological target: T1, MBP-PqsH, recombinant (P. aeruginosa PAO1, UniProt Q9I0Q0 1-382)
T1 construct: also called PqsH protein; source: E. coli BL21 (DE3), pMAL-C5x, purified (Dextrin Beads 6FF, Mono Q ion exchange, Superdex 200 gel filtration)
T1 sequence: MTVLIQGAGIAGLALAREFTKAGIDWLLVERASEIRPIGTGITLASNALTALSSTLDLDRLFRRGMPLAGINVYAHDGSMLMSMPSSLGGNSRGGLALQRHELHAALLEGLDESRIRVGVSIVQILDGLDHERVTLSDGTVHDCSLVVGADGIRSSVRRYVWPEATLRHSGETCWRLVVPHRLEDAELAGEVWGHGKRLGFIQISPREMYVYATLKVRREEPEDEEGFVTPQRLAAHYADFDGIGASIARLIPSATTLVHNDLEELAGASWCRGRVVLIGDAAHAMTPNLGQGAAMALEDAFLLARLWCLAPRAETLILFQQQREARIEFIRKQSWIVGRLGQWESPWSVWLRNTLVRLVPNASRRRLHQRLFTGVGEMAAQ
Experiment: SPR
Details: both partners purified

B1: HIS-ZapE, recombinant (natural protein, P. aeruginosa PAO1, UniProt Q9HVX7 1-364, looked up)
chain: MTPLERYQADLQRPDFFHDAAQANAVKHLQRLYDDLVAADHAKPGLFGKLLGRKSGGPVKGLYFWGGVGRGKTYLVDTFFESLPFEQKVRTHFHRFMKRVHEELKTLKGEKNPLTIIGKRFADEARVICFDEFFVSDITDAMILATLLEELFKNGVSLVATSNIVPDGLYKDGLQRARFLPAIALLKEHTEIVNVDSGVDYRLRALEQAELFHWPLSEQVEEEMARSFKALTPDCAKAQRDEALMIENREIRARLTCDDVAWFEFRELCDGPRSQNDYIELAKIFHAVLISNVEQMGVTKDDMARRFINLVDEFYDRSVKLIISAEVELKDLYSGGRLEFEFQRTLSRLLEMQSHEYLTRPHRP
notes: also called PA4438; ZapE protein; source: E. coli BL21 (DE3), pET28a, purified (Ni NTA beads, Mono Q ion exchange, Superdex 200 gel filtration)
  binding result: binds
